# Measured values: patent US20240010721A1 (HARBOUR BIOMED SHANGHAI, published 2024)
# Numbering of substitutions follows the chain as printed.
# B1: PR001356 (antibody, human IgG1, kappa, V domains shown)
# VH: QVQLVESGGGVVQPGRSLRLSCAASGFTFSSYGMHWVRQAPGKGLEWVAVAWYDGVSEDYADSVKGRFTISRDNAKNTLYLQMNSLRAEDTAVYYCAREQARSFDLWGRGTLVTVSS
# VL: DIVMTQSPSTLSASVGDRVTITCRASQSINNWLAWYQQKPGKAPKLLIYKASSLESGVPSRFSGSGSGTEFTLTISSLQPDDFATYYCQQYKSYSPMYTFGQGTKVEIKR
# notes: fully human IgG1, kappa; also called anti-ROR1 1015M2-E6 hIgG1; PR001356(WT)
# B2: PR001366 (antibody, V domains shown)
# VH: B1 VH with A23T, A51K, V56I, E58Q, D59N, Y60F, A75S, E99D, Q100L, L106I
# VL: B1 VL with V3Q, M4L, N31S, E107D
# notes: fully human IgG1, kappa
# B3: PR001358 (antibody, human IgG1, kappa, V domains shown)
# VH: B1 VH with E6Q, G33A, V50I, A51M, V56S, S57N, E58T, N74T, A75S, Y80F
# VL: B1 VL with N31S, S53N, E107D
# notes: fully human IgG1, kappa
# B4: PR001370 (antibody, V domains shown)
# VH: B1 VH with Q1E, V5L, A51K, V56I, E58Q, D59N, Y60F, A75S, E99D, Q100L
# VL: B1 VL with K92N, E107D
# notes: fully human IgG1, kappa
# B5: PR001361 (antibody, V domains shown)
# VH: B1 VH with E6Q, A23T, S31R, H35L, A75S, K76M, Y80S
# VL: B1 VL with V3Q, M4L, N31S, E107D
# notes: fully human IgG1, kappa
# B6: PR001352 (antibody, human IgG1, kappa, V domains shown)
# VH: B1 VH with Q1E, V5L, A51K, V56I, E58Q, D59N, Y60F, A75S, E99D, Q100L
# VL: B1 VL with V3Q, M4L, T10S, S28T, K92N
# notes: fully human IgG1, kappa
# B7: PR001364 (antibody, human IgG1, kappa, V domains shown)
# VH: B1 VH with Q1E, V5L, Y32F, A51I, V56S, S57D, E58K, N74T, A75S
# VL: B1 VL with S28T, K92N
# notes: fully human IgG1, kappa; also called anti-ROR1 1015M3-D8 hIgG1; PR001364(WT)
# B8: PR001365 (antibody, human IgG1, kappa, V domains shown)
# VH: B1 VH with E6Q, A51I, V56S, S57D, E58K, N74T, A75S
# VL: B1 VL with V3Q, S9Y, T10S, S28T, S93L
# notes: fully human IgG1, kappa
# B9: PR001369 (antibody, human IgG1, kappa, V domains shown)
# VH: B1 VH with S31N, M34I, V50I, A51M, V56S, S57N, E58T, N74T, A75S, Y80F
# VL: B1 VL with S28T, K92N
# notes: fully human IgG1, kappa; also called anti-ROR1 1015M3-H10 hIgG1; PR001369(WT)
# B10: PR001367 (antibody, human IgG1, kappa, V domains shown)
# VH: B1 VH with T28S, G33A, K43R, A51I, V56G, S57D, A61I, N74D, A75S
# VL: B1 VL with I2V, S28T, K92N
# notes: fully human IgG1, kappa
# B11: PR001368 (antibody, V domains shown)
# VH: B1 VH with S31T, A51I, V56S, S57D, E58T, N74T, A75S
# VL: B1 VL with N31S
# notes: fully human IgG1, kappa
# B12: PR001371 (antibody, human IgG1, kappa, V domains shown)
# VH: B1 VH with H35L, A75S, K76M, Y80S
# VL: B1 VL with V3Q, M4L, T10S, S28T, K92N
# notes: fully human IgG1, kappa
# B13: PR001363 (antibody, human IgG1, kappa, V domains shown)
# VH: B1 VH with T28S, G33A, K43R, A51I, V56G, S57D, Y60S, A61I, N74D, A75S
# VL: B1 VL with I2V, S28T, K92N
# notes: fully human IgG1, kappa
# Molecular target: T1, Human ROR1-ECD-his (human, UniProt Q01973 30-406)
# T1 construct: extracellular domain; bought, Acrobiosystems RO1-H522y; also called hROR1-ECD-his; hROR1 ECD-his
# Test: ELISA, plate coated with hROR1 ECD-his
# Method: (§1) Screening by ELISA assay: 96-well plates (Corning 9018) were coated with 1 μg/mL hROR1 ECD-his/hROR2 ECD-his/mROR1 ECD-his proteins prepared with PBS in Example 1a above and incubated at 4° C. overnight. The liquid was then discarded, and the plates were washed 3 times with PBST, blocked with 5% milk for 2 h at room temperature, and washed 3 times with PBST. The taken supernatant was added at 100 μL/well, and the plates were incubated at room temperature for 1 h, followed by washing 3 times with PBST. 100 μL/well of secondary antibody (Sigma, Cat#: A8592) was added, the plates were incubated at room temperature for 1 h, and then washed. TMB was then added to the plates at 100 μL/well and incubated for 15 min at room temperature. Thereafter, the reaction was terminated and data were read.
# (§2) a. Results of ELISA assay (the ELISA assay was performed according to the same procedures as in Example 2c, except that the added samples were recombinant antibodies and the secondary antibody was a-Fc (Genscript, Cat#: A01854))
# T1 sequence (Q01973 30-406): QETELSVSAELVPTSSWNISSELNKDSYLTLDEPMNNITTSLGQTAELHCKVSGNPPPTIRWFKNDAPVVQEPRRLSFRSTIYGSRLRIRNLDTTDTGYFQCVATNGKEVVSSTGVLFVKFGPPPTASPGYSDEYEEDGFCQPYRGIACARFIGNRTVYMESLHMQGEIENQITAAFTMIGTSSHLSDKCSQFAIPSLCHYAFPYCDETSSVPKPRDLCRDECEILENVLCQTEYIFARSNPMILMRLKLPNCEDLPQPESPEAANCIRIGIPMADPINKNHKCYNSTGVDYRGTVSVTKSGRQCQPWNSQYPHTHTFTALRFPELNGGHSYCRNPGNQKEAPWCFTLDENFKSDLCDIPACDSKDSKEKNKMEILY
row,Binder,ELISA signal (called MFI)
1,B1,2.38
2,B2,2.24
3,B3,2.47
4,B4,2.53
5,B5,2.28
6,B6,2.48
7,B7,2.38
8,B8,2.35
9,B9,2.48
10,B10,2.38
11,B11,2.51
12,B12,2.38
13,B13,2.45

# Molecular target: T2, human ROR1 (hROR1) on cells (human, UniProt Q01973 30-937)
# T2 construct: whole, on cells; the cell line is named under assay; also called HEK293T-hROR1; 293T-hROR1
# Test: FACS, Panc-1 cells
# T2 sequence (Q01973 30-937): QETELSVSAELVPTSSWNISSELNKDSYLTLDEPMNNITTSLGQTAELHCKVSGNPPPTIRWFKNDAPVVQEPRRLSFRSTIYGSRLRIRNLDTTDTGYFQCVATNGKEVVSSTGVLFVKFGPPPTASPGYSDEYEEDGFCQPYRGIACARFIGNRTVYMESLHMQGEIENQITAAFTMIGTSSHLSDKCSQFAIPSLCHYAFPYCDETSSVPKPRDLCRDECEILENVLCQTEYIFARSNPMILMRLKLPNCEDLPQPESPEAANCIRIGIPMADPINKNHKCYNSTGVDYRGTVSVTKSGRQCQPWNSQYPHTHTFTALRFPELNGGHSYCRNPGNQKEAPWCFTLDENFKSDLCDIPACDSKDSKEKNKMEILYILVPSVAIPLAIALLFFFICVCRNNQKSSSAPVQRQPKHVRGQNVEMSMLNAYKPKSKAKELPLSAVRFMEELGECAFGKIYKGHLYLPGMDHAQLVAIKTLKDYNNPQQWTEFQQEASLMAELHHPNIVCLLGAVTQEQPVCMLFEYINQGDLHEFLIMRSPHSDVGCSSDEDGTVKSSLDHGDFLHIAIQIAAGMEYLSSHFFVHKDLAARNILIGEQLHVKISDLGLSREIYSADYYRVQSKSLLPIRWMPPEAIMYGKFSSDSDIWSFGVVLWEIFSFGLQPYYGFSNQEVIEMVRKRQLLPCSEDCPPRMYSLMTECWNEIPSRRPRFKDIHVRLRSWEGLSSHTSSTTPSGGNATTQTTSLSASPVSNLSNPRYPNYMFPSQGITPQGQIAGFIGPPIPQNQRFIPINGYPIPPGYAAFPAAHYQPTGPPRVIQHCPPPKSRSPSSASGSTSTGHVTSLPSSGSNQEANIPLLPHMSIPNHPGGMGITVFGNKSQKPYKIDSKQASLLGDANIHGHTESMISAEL
row,Binder,MFI
1,B1,5590 MFI
2,B7,4960 MFI
3,B9,6230 MFI

# Molecular target: T2, human ROR1 (hROR1) on cells
# Test: FACS, HEK293T-hROR1 cells
# Method: (§3) The binding properties were characterized by FACS. The recombinant antibodies obtained above were serially diluted to 9 different concentrations and incubated for 1 h, and then determined for the binding ability with HEK293T-hROR1, CHO-K1-cynoROR1 and A549 cell lines (endogenously expressing ROR1), respectively. The secondary antibody was then incubated for 1 h. The results are shown in FIG. 4-6 and Table 7-2 below.
row,Binder,fold lower EC50 than reference PR000374
1,B1,10 fold
2,B2,10 fold
3,B3,10 fold
4,B4,10 fold
5,B5,10 fold
6,B6,10 fold
7,B7,10 fold
8,B8,10 fold
9,B9,10 fold
10,B10,10 fold
11,B11,10 fold
12,B12,10 fold
13,B13,10 fold

# Molecular target: T3, ROR1 (antigen of the KD determination and of the Octet dissociation measurement) (UniProt Q01973 30-403, limits assumed)
# Test: Octet, antigen form not stated
# T3 sequence (Q01973 30-403 limits assumed): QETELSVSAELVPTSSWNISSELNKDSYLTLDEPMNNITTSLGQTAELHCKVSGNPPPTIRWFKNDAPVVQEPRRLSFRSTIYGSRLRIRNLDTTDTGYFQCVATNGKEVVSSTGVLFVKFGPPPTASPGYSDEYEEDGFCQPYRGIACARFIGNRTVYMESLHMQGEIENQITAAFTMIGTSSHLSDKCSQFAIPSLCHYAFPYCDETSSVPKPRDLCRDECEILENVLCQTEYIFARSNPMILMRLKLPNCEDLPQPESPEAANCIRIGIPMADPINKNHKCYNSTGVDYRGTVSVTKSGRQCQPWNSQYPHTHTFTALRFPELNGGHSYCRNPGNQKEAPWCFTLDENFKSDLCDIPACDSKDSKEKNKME
Binder,Response,koff
B1,0.617,0.000152 s⁻¹
B7,0.601,9.38e-05 s⁻¹
B9,0.288,0.00498 s⁻¹

# Molecular target: T4, cynomolgus ROR1 (cynoROR1) on CHO-K1 cells (cynomolgus, UniProt A0A2K5WTX7 30-937)
# T4 construct: whole, on cells; also called CHO-K1-cynoROR1; CHO-K1-cyROR1
# Test: FACS, CHO-K1-cynoROR1 cells
# Method: as §3
row,Binder,MAX(MFI)
1,B1,29700 MFI
2,B2,23300 MFI
3,B3,27300 MFI
4,B4,26000 MFI
5,B5,27200 MFI
6,B6,30700 MFI
7,B7,18200 MFI
8,B8,22100 MFI
9,B9,22200 MFI
10,B10,21200 MFI
11,B11,27800 MFI
12,B12,28400 MFI
13,B13,17200 MFI

# Molecular target: T2, human ROR1 (hROR1) on cells
# Test: FACS, A549 cells
# Method: as §3
row,Binder,MAX(MFI)
1,B1,4630 MFI
2,B2,4750 MFI
3,B3,4970 MFI
4,B4,3920 MFI
5,B5,4520 MFI
6,B6,4520 MFI
7,B7,3960 MFI
8,B8,4400 MFI
9,B9,3890 MFI
10,B10,3450 MFI
11,B11,4210 MFI
12,B12,4110 MFI
13,B13,3700 MFI

# Molecular target: T5, hROR2ECD-his (human, UniProt Q01974 34-403)
# T5 construct: extracellular domain; bought, Acrobiosystems R02-H52E5; also called huROR2-his
# Test: ELISA, plate coated with hROR2 ECD-his
# Method: as §1, §2
# T5 sequence (Q01974 34-403): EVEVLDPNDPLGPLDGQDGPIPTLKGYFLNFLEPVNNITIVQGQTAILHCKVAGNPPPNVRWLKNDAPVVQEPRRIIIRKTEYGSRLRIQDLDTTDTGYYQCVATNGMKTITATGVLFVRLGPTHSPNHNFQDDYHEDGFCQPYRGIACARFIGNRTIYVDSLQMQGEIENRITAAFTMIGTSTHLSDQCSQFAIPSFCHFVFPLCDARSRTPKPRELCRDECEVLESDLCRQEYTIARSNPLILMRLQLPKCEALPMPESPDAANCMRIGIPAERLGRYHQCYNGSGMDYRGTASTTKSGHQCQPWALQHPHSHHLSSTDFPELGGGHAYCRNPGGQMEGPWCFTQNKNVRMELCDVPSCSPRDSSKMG
row,Binder,ELISA signal (called MFI)
1,B1,0.0305
2,B2,0.0305
3,B3,0.049
4,B4,0.0335
5,B5,0.028
6,B6,0.0335
7,B7,0.024
8,B8,0.0285
9,B9,0.031
10,B10,0.0235
11,B11,0.0255
12,B12,0.0235
13,B13,0.0305

# Molecular target: T3, ROR1 (antigen of the KD determination …)
# Test: method not stated (conventional procedures)
Binder,Kd,koff,kon
B1,0.81 nM,0.000287 s⁻¹,354000 M⁻¹ s⁻¹
B2,1.67 nM,0.00075 s⁻¹,448000 M⁻¹ s⁻¹
B3,1.07 nM,0.000518 s⁻¹,482000 M⁻¹ s⁻¹
B4,3.97 nM,0.00113 s⁻¹,285000 M⁻¹ s⁻¹
B5,1.83 nM,0.00108 s⁻¹,590000 M⁻¹ s⁻¹
B6,1.51 nM,0.000476 s⁻¹,316000 M⁻¹ s⁻¹
B7,1.2 nM,0.000376 s⁻¹,314000 M⁻¹ s⁻¹
B8,0.237 nM,7.72e-05 s⁻¹,325000 M⁻¹ s⁻¹
B9,1.69 nM,0.000519 s⁻¹,307000 M⁻¹ s⁻¹
B10,3.06 nM,0.00104 s⁻¹,341000 M⁻¹ s⁻¹
B11,2.16 nM,0.000867 s⁻¹,402000 M⁻¹ s⁻¹
B12,1.76 nM,0.000525 s⁻¹,298000 M⁻¹ s⁻¹
B13,2.9 nM,0.00101 s⁻¹,348000 M⁻¹ s⁻¹

# Molecular target: T2, human ROR1 (hROR1) on cells
# Test: FACS, HEK293T-hROR1 cells; cytometer saturated
# Method: as §3
row,Binder,MAX(MFI)
1,B1,262000 MFI
2,B2,262000 MFI
3,B3,262000 MFI
4,B4,262000 MFI
5,B5,262000 MFI
6,B6,262000 MFI
7,B7,262000 MFI
8,B8,262000 MFI
9,B9,262000 MFI
10,B10,262000 MFI
11,B11,262000 MFI
12,B12,262000 MFI
13,B13,262000 MFI

# Molecular target: T2, human ROR1 (hROR1) on cells
# Test: FACS, HEK293T-hROR1 cells
# Remark: another data set of the same source
row,Binder,MFI
1,B1,50900 MFI
2,B7,43100 MFI
3,B9,43800 MFI

# Molecular target: T5, hROR2ECD-his
# Test: ELISA, plate coated with hROR2 ECD-his
# Remark: another data set of the same source
# Method: as §1, §2
# The corresponding values in the table are the measured median fluorescence intensity (MFI).
row,Binder,binding result
1,B1,no binding
2,B2,no binding
3,B3,no binding
4,B4,no binding
5,B5,no binding
6,B6,no binding
7,B7,no binding
8,B8,no binding
9,B9,no binding
10,B10,no binding
11,B11,no binding
12,B12,no binding
13,B13,no binding
